Assay results taken from patent publication US20260001928A1 (CORTERIA PHARMACEUTICALS, priority 2022, published 2026).
*1 amine or outer side, *2 acyl side, *3 side chain or, on linkers, in order; H or OH if unused. Primed or numbered codes have the meaning given here. Where no end group is shown, it is not given here. Side-chain parts run from the residue outwards. [ ]: non-standard residue; d: D form. The star is where a group is joined. Thp′ = 4-amino-tetrahydro-2H-pyran-4-yl-acetic acid, O=C(CC1(N[*:1])CCOCC1)[*:2]; C20 diacid = O=C(O)CCCCCCCCCCCCCCCCCCC(=O)*; C16 diacid = O=C(O)CCCCCCCCCCCCCCC(=O)*; γGlu = O=C(O)[C@H](CCC(=O)[*:2])N[*:1]; NMeI = CC[C@H](C)[C@H](NC)C(=O)O; Aib = CC(C)(N)C(=O)O

T1: CRF1R receptor (UniProt P34998 24-415, limits assumed)
T1 sequence (looked up): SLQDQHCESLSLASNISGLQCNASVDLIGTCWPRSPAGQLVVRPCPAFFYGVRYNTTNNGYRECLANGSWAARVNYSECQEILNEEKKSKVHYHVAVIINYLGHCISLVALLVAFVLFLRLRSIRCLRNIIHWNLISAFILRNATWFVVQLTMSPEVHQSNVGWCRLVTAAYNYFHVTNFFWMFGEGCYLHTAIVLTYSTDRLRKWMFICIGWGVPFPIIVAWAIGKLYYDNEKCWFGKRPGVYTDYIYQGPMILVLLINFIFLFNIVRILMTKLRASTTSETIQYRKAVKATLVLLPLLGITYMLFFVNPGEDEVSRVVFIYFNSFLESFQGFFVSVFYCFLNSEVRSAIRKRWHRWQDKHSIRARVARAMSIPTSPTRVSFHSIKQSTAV

B1: SEQ ID NO 214 (peptide)
peptide: [NMeI]VLSLD[dV]PIKLK([γGlu-C20 diacid])KILLEQEKQKKQREQAETN[Aib]QILAQV-NH2
modifications: N-terminus assumed
SMILES: CC[C@H](C)[C@H](NC)C(=O)N[C@H](C(=O)N[C@@H](CC(C)C)C(=O)N[C@@H](CO)C(=O)N[C@@H](CC(C)C)C(=O)N[C@@H](CC(=O)O)C(=O)N[C@@H](C(=O)N1CCC[C@H]1C(=O)N[C@H](C(=O)N[C@@H](CCCCN)C(=O)N[C@@H](CC(C)C)C(=O)N[C@@H](CCCCNC(=O)CC[C@H](NC(=O)CCCCCCCCCCCCCCCCCCC(=O)O)C(=O)O)C(=O)N[C@@H](CCCCN)C(=O)N[C@H](C(=O)N[C@@H](CC(C)C)C(=O)N[C@@H](CC(C)C)C(=O)N[C@@H](CCC(=O)O)C(=O)N[C@@H](CCC(N)=O)C(=O)N[C@@H](CCC(=O)O)C(=O)N[C@@H](CCCCN)C(=O)N[C@@H](CCC(N)=O)C(=O)N[C@@H](CCCCN)C(=O)N[C@@H](CCCCN)C(=O)N[C@@H](CCC(N)=O)C(=O)N[C@@H](CCCNC(=N)N)C(=O)N[C@@H](CCC(=O)O)C(=O)N[C@@H](CCC(N)=O)C(=O)N[C@@H](C)C(=O)N[C@@H](CCC(=O)O)C(=O)N[C@H](C(=O)N[C@@H](CC(N)=O)C(=O)NC(C)(C)C(=O)N[C@@H](CCC(N)=O)C(=O)N[C@H](C(=O)N[C@@H](CC(C)C)C(=O)N[C@@H](C)C(=O)N[C@@H](CCC(N)=O)C(=O)N[C@H](C(N)=O)C(C)C)[C@@H](C)CC)[C@@H](C)O)[C@@H](C)CC)[C@@H](C)CC)C(C)C)C(C)C
B2: SEQ ID NO 212 (peptide)
peptide: Ac-IVLSLD[dV]PIKLK([γGlu-C20 diacid])KILLEQEKQKAQREQAETN[Aib]QILAQV-NH2
SMILES: CC[C@H](C)[C@H](NC(C)=O)C(=O)N[C@H](C(=O)N[C@@H](CC(C)C)C(=O)N[C@@H](CO)C(=O)N[C@@H](CC(C)C)C(=O)N[C@@H](CC(=O)O)C(=O)N[C@@H](C(=O)N1CCC[C@H]1C(=O)N[C@H](C(=O)N[C@@H](CCCCN)C(=O)N[C@@H](CC(C)C)C(=O)N[C@@H](CCCCNC(=O)CC[C@H](NC(=O)CCCCCCCCCCCCCCCCCCC(=O)O)C(=O)O)C(=O)N[C@@H](CCCCN)C(=O)N[C@H](C(=O)N[C@@H](CC(C)C)C(=O)N[C@@H](CC(C)C)C(=O)N[C@@H](CCC(=O)O)C(=O)N[C@@H](CCC(N)=O)C(=O)N[C@@H](CCC(=O)O)C(=O)N[C@@H](CCCCN)C(=O)N[C@@H](CCC(N)=O)C(=O)N[C@@H](CCCCN)C(=O)N[C@@H](C)C(=O)N[C@@H](CCC(N)=O)C(=O)N[C@@H](CCCNC(=N)N)C(=O)N[C@@H](CCC(=O)O)C(=O)N[C@@H](CCC(N)=O)C(=O)N[C@@H](C)C(=O)N[C@@H](CCC(=O)O)C(=O)N[C@H](C(=O)N[C@@H](CC(N)=O)C(=O)NC(C)(C)C(=O)N[C@@H](CCC(N)=O)C(=O)N[C@H](C(=O)N[C@@H](CC(C)C)C(=O)N[C@@H](C)C(=O)N[C@@H](CCC(N)=O)C(=O)N[C@H](C(N)=O)C(C)C)[C@@H](C)CC)[C@@H](C)O)[C@@H](C)CC)[C@@H](C)CC)C(C)C)C(C)C
B3: SEQ ID NO 213 (peptide)
peptide: Ac-IVLSLD[dV]PIKLK([γGlu-C20 diacid])KILLEQEKQKEQREQAETN[Aib]QILAQV-NH2
SMILES: CC[C@H](C)[C@H](NC(C)=O)C(=O)N[C@H](C(=O)N[C@@H](CC(C)C)C(=O)N[C@@H](CO)C(=O)N[C@@H](CC(C)C)C(=O)N[C@@H](CC(=O)O)C(=O)N[C@@H](C(=O)N1CCC[C@H]1C(=O)N[C@H](C(=O)N[C@@H](CCCCN)C(=O)N[C@@H](CC(C)C)C(=O)N[C@@H](CCCCNC(=O)CC[C@H](NC(=O)CCCCCCCCCCCCCCCCCCC(=O)O)C(=O)O)C(=O)N[C@@H](CCCCN)C(=O)N[C@H](C(=O)N[C@@H](CC(C)C)C(=O)N[C@@H](CC(C)C)C(=O)N[C@@H](CCC(=O)O)C(=O)N[C@@H](CCC(N)=O)C(=O)N[C@@H](CCC(=O)O)C(=O)N[C@@H](CCCCN)C(=O)N[C@@H](CCC(N)=O)C(=O)N[C@@H](CCCCN)C(=O)N[C@@H](CCC(=O)O)C(=O)N[C@@H](CCC(N)=O)C(=O)N[C@@H](CCCNC(=N)N)C(=O)N[C@@H](CCC(=O)O)C(=O)N[C@@H](CCC(N)=O)C(=O)N[C@@H](C)C(=O)N[C@@H](CCC(=O)O)C(=O)N[C@H](C(=O)N[C@@H](CC(N)=O)C(=O)NC(C)(C)C(=O)N[C@@H](CCC(N)=O)C(=O)N[C@H](C(=O)N[C@@H](CC(C)C)C(=O)N[C@@H](C)C(=O)N[C@@H](CCC(N)=O)C(=O)N[C@H](C(N)=O)C(C)C)[C@@H](C)CC)[C@@H](C)O)[C@@H](C)CC)[C@@H](C)CC)C(C)C)C(C)C
B4: SEQ ID NO 10 (peptide)
peptide: IVLSLD[dV]PIKLK([γGlu-C16 diacid])QILLKQERQKKQREQAEKN[Aib]QILEQV-NH2
B5: SEQ ID NO 210 (peptide)
peptide: Ac-IVLSLD[dV]PIKLK([γGlu-C20 diacid])KILLEQEKQKKQREQAETN[Thp′]QILAQV-NH2
B6: SEQ ID NO 211 (peptide)
peptide: Ac-IVLSLD[dV]PIKLK([γGlu-C20 diacid])KILLEQEAQKKQREQAETN[Aib]QILAQV-NH2
SMILES: CC[C@H](C)[C@H](NC(C)=O)C(=O)N[C@H](C(=O)N[C@@H](CC(C)C)C(=O)N[C@@H](CO)C(=O)N[C@@H](CC(C)C)C(=O)N[C@@H](CC(=O)O)C(=O)N[C@@H](C(=O)N1CCC[C@H]1C(=O)N[C@H](C(=O)N[C@@H](CCCCN)C(=O)N[C@@H](CC(C)C)C(=O)N[C@@H](CCCCNC(=O)CC[C@H](NC(=O)CCCCCCCCCCCCCCCCCCC(=O)O)C(=O)O)C(=O)N[C@@H](CCCCN)C(=O)N[C@H](C(=O)N[C@@H](CC(C)C)C(=O)N[C@@H](CC(C)C)C(=O)N[C@@H](CCC(=O)O)C(=O)N[C@@H](CCC(N)=O)C(=O)N[C@@H](CCC(=O)O)C(=O)N[C@@H](C)C(=O)N[C@@H](CCC(N)=O)C(=O)N[C@@H](CCCCN)C(=O)N[C@@H](CCCCN)C(=O)N[C@@H](CCC(N)=O)C(=O)N[C@@H](CCCNC(=N)N)C(=O)N[C@@H](CCC(=O)O)C(=O)N[C@@H](CCC(N)=O)C(=O)N[C@@H](C)C(=O)N[C@@H](CCC(=O)O)C(=O)N[C@H](C(=O)N[C@@H](CC(N)=O)C(=O)NC(C)(C)C(=O)N[C@@H](CCC(N)=O)C(=O)N[C@H](C(=O)N[C@@H](CC(C)C)C(=O)N[C@@H](C)C(=O)N[C@@H](CCC(N)=O)C(=O)N[C@H](C(N)=O)C(C)C)[C@@H](C)CC)[C@@H](C)O)[C@@H](C)CC)[C@@H](C)CC)C(C)C)C(C)C
B7: SEQ ID NO 209 (peptide)
peptide: Ac-IVLSLD[dV]PIKLK([γGlu-C20 diacid])KILLEQEKQK[Aib]QREQAETN[Aib]QILAQV-NH2
SMILES: CC[C@H](C)[C@H](NC(C)=O)C(=O)N[C@H](C(=O)N[C@@H](CC(C)C)C(=O)N[C@@H](CO)C(=O)N[C@@H](CC(C)C)C(=O)N[C@@H](CC(=O)O)C(=O)N[C@@H](C(=O)N1CCC[C@H]1C(=O)N[C@H](C(=O)N[C@@H](CCCCN)C(=O)N[C@@H](CC(C)C)C(=O)N[C@@H](CCCCNC(=O)CC[C@H](NC(=O)CCCCCCCCCCCCCCCCCCC(=O)O)C(=O)O)C(=O)N[C@@H](CCCCN)C(=O)N[C@H](C(=O)N[C@@H](CC(C)C)C(=O)N[C@@H](CC(C)C)C(=O)N[C@@H](CCC(=O)O)C(=O)N[C@@H](CCC(N)=O)C(=O)N[C@@H](CCC(=O)O)C(=O)N[C@@H](CCCCN)C(=O)N[C@@H](CCC(N)=O)C(=O)N[C@@H](CCCCN)C(=O)NC(C)(C)C(=O)N[C@@H](CCC(N)=O)C(=O)N[C@@H](CCCNC(=N)N)C(=O)N[C@@H](CCC(=O)O)C(=O)N[C@@H](CCC(N)=O)C(=O)N[C@@H](C)C(=O)N[C@@H](CCC(=O)O)C(=O)N[C@H](C(=O)N[C@@H](CC(N)=O)C(=O)NC(C)(C)C(=O)N[C@@H](CCC(N)=O)C(=O)N[C@H](C(=O)N[C@@H](CC(C)C)C(=O)N[C@@H](C)C(=O)N[C@@H](CCC(N)=O)C(=O)N[C@H](C(N)=O)C(C)C)[C@@H](C)CC)[C@@H](C)O)[C@@H](C)CC)[C@@H](C)CC)C(C)C)C(C)C

Legend:
[1] = target: human corticotropin-releasing factor 2a (CRF2a receptor) (human), Q13324; experiment: cell-based or functional assay
Chain of human corticotropin-releasing factor 2a (CRF2a receptor) (human), Q13324 (Q13324 20-411): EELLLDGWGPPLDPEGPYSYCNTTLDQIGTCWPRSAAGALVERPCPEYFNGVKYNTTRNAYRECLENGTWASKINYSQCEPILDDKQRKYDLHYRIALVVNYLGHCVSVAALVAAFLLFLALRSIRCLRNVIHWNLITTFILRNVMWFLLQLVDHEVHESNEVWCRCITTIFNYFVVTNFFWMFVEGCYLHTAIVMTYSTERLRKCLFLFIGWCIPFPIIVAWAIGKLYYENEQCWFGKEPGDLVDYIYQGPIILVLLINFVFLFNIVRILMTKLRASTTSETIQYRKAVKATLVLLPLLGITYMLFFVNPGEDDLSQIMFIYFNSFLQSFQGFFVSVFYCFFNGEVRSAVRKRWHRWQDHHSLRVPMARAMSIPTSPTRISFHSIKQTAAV

CRF1R receptor = target: T1, CRF1R receptor; experiment: cell-based or functional assay

| Binder | EC50 [nM] (cAMP) [1] | Emax (% I) (CRF1R receptor) | EC50 (CRF1R receptor) |
| --- | --- | --- | --- |
| B1 | 0.12 nM | 34% |  |
| B2 | 0.11 nM | 41% | 229 nM |
| B3 | 0.22 nM | 27% |  |
| B4 | 0.17 nM | 26% | > 250 nM |
| B5 | 0.21 nM | 35% | > 250 nM |
| B6 | 0.15 nM | 73% | 39.9 nM |
| B7 | 0.22 nM | 21% |  |
